From PMC5740062, “CRTC1 mediates preferential transcription at neuronal activity-regulated CRE/TATA promoters” (Scientific Reports, 2017)

Biological target: T1, cAMP-responsive element-binding protein (CREB) (mouse (endogenous in primary cortical …, UniProt Q01147-1 1-341, phosphoserine at 133 (blotted as pCREB after FSK/KCl)))
T1 construct: Precipitated with an anti-CREB antibody and detected on blots as phosphorylated CREB (Ser133); also called pCREB; endogenous CREB; source: endogenous, mouse primary cortical neurons (12 DIV), formaldehyde-crosslinked, in lysate
T1 sequence (Q01147 other isoform, or with tags, fused parts or gaps): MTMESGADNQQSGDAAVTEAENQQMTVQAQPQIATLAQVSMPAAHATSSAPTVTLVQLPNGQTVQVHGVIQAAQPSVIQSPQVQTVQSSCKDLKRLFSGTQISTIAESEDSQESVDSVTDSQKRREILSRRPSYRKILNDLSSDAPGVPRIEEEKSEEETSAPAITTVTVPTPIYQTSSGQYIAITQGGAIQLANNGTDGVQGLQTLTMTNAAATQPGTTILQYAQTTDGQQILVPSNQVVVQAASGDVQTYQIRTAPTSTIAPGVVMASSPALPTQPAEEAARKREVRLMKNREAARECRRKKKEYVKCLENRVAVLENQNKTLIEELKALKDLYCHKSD
Assay: co-IP; endogenous proteins; cortical neurons (12 DIV) treated with vehicle or FSK/KCl, crosslinked with 1% formaldehyde, lysed by sonication (50 mM Tris-HCl pH 8, 1% Triton X-100, 100 mM NaCl, 1 mM MgCl2); 2 mg protein immunoprecipitated overnight at 4 °C with anti-CREB or anti-CRTC1, Dynabeads protein G; blots of CRTC1 and pCREB; percent normalised to the maximum immunoprecipitation with the specific antibody in …
Conditions: partners not purified

percent of CRTC1 co-immunoprecipitated with anti-CREB (FSK/KCl), relative to its immunoprecipitation with anti-CRTC1: ~37%
B1: CREB-regulated transcription coactivator-1 (CRTC1) (natural protein, UniProt Q68ED7 1-630, looked up)
chain: MATSNNPRKFSEKIALHNQKQAEETAAFEEVMKDLSLTRAARLQLQKSQYLQLGPSRGQYYGGSLPNVNQIGSSSVDLAFQTPFQSSGLDTSRTTRHHGLVDRVYRERGRLGSPHRRPLSVDKHGRQADSCPYGTVYLSPPADTSWRRTNSDSALHQSTMTPSQAESFTGGSQDAHQKRVLLLTVPGMEDTGAETDKTLSKQSWDSKKAGSRPKSCEVPGINIFPSADQENTTALIPATHNTGGSLPDLTNIHFPSPLPTPLDPEEPPFPALTSSSSTGSLAHLGVGGAGQGMNTPSSSPQHRPAVVSPLSLSTEARRQQAQQVSPTLSPLSPITQAVAMDALSLEQQLPYAFFTQTGSQQPPPQPQPPPPPPPVSQQQPPPPQVSVGLPQGGPLLPSASLTRGPQLPPLSVTVPSTLPQSPTENPGQSPMGIDATSAPALQYRTSAGSPATQSPTSPVSNQGFSPGSSPQHTSTLGSVFGDAYYEQQMTARQANALSRQLEQFNMMENAISSSSLYNPGSTLNYSQAAMMGLSGSHGGLQDPQQLGYTGHGGIPNIILTVTGESPPSLSKELSSTLAGVSDVSFDSDHQFPLDELKIDPLTLDGLHMLNDPDMVLADPATEDTFRMDRL
notes: also called endogenous CRTC1; source: endogenous, mouse primary cortical neurons (12 DIV), formaldehyde-crosslinked, in lysate
